Source: publication PMC7871196 (Cell reports, 2021)
Where no end group is shown, it is not given here. The star is where a group is joined. Biotin = O=C1N[C@H]2[C@H](CS[C@H]2CCCCC(=O)*)N1

Legend:
[1] = biological target: 6xHis-tagged WDR5 (24-334) (human, UniProt P61964 24-334); assay: AlphaScreen or HTRF
[2] = biological target: recombinant 6xHis-SUMO-WDR5 (22-334) (human, UniProt P61964 22-334); assay: pull-down

| binding result [1] | binding result [2] | Binder |
| --- | --- | --- |
| binds | – | Ac-ARTTSQLYDAVPIQS-NH2 [Peptide acetyl PDPK1 WT 15-mer: Acetyl-ARTTSQLYDAVPIQS-amidated] |
| binds | – | Ac-ARTTSQLYDA-NH2 [Peptide acetyl PDPK1 WT 10-mer: Acetyl - ARTTSQLYDA-amidated] |
| – | binds | H-ARTTSQLYDAVPIQSSGGYK(Biotin) [Peptide PDPK1 WT: NH2-ARTTSQLYDAVPIQSS-GGY-K(biotin)] |
